The results in this text go back to patent US20240270846A1 (published 2024).

Where no end group is shown, it is not given here.

In assay [1] the target is T1, biotinylated CD3 epsilon epitope peptide (UniProt P07766 22-48, biotinylated).
T1 chain: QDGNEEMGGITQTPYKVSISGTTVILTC
The experiment in a line: SPR (Biacore); biotinylated CD3 epsilon epitope peptide on chip via streptavidin, antibody as analyte. (In SPR one partner is held on a chip, and binding of the other changes the refractive index at the surface.)

Assay [2] concerns the target T2, biotin-labeled cynomolgus monkey CD137 fused to human IgG1 Fc fragment (cynomolgus monkey, UniProt Q07011 24-186 (human entry), limits assumed, biotin-labeled).
T2 construct: also called cyno CD137-Fc; not shown: human IgG1 Fc fragment
T2 chain: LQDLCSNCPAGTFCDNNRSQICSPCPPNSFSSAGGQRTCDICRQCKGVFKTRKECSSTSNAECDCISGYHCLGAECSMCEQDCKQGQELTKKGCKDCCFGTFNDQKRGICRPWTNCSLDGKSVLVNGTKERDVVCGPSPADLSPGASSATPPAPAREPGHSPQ
As to the kind of experiment: bead ELISA (chemiluminescence), purified IgG on biotin labeled cyno CD137-Fc on streptavidin beads.

The target of assay [3] is T2, biotin-labeled cynomolgus monkey CD137 …. The experiment in a line: bead ELISA; RLU on cyno CD137-Fc divided by RLU on human Fc. For orientation: In an ELISA, binding on a coated surface is turned into a signal by an enzyme label.
Protocol: (§1) First, 20 micro g of Streptavidin-coated magnetic beads MyOne-T1 beads was washed three-times with blocking buffer including 0.5× block Ace, 0.02% Tween and 0.05% ProClin 300 and then blocked with this blocking buffer at room temperature for 60 minutes or more. […] After that each well was washed with TBST. […] The plate was incubated for one hour. […] 2 minutes later the fluorescence of each well was detected.
Assay [4] has as its target T3, biotin-labeled human CD137 fused to human IgG1 Fc fragment (human, biotin-labeled).
T3 construct: also called human CD137-Fc; biotin-human CD137-Fc
As to the kind of experiment: bead ELISA; RLU on human CD137-Fc divided by RLU on human Fc.
Protocol: as §1

The target in assay [5] is T3, biotin-labeled human CD137 fused to …. The experiment in a line: bead ELISA (chemiluminescence), purified IgG on biotin labeled human CD137-Fc on streptavidin beads.
Protocol: as §1
Assay [6] has as its target T4, biotin-labeled CD3 epsilon peptide antigen (human, also: biotin-labeled, position not given here).
T4 construct: Peptide of CD3 epsilon; also called CD3 peptide
T4 peptide: QDGNEEMGGITQTPY
As to the kind of experiment: bead ELISA, biotin-CD3 epsilon peptide on streptavidin beads, 100 ng IgG.

Usually Kd stands for a measure of binding affinity in units of concentration.

T3 sequence (chain, as listed by the source limits assumed): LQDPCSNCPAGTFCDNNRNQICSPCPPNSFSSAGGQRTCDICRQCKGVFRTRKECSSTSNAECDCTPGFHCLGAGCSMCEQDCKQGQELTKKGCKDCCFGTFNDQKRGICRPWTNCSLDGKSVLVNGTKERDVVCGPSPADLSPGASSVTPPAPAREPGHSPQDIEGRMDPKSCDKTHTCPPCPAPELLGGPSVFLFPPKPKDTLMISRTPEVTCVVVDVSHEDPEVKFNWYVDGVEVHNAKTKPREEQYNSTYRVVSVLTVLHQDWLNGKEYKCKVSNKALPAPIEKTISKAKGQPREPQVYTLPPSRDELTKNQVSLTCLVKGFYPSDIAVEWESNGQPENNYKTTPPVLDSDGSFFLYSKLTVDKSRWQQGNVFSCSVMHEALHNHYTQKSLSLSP

B1: NNS6f59 (CE115HA340 with LLVQEG inserted between Kabat positions 99 and 100), one-arm antibody (antibody)
chain 1: QVQLVESGGGLVQPGRSLRLSCAASGFTFSNAWMHWVRQAPGKGLEWVAQIKDKSNNYATYYAESVKGRFTISRDDSKNSIYLQMNSLKTEDTAVYYCRYVHYAALLVQEGYYGVDAWGQGTTVTVSSASTKGPSVFPLAPSSKSTSGGTAALGCLVKDYFPEPVTVSWNSGALTSGVHTFPAVLQSSGLYSLSSVVTVPSSSLGTQTYICNVNHKPSNTKVDKKVEPKSCDKTHTCPPCPAPEAAGGPSVFLFPPKPKDTLMISRTPEVTCVVVDVSHEDPEVKFNWYVDGVEVHNAKTKPREEQYASTYRVVSVLTVLHQDWLNGKEYKCKVSNKALPAPIEKTISKAKGQPREPQVYTLPPSRCELTKNQVSLSCAVKGFYPSDIAVEWESNGQPENNYKTTPPVLDSDGSFFLVSKLTVDKSRWQQGNVFSCSVMHEALHNHYTQKSLSLSPDYKDDDDK
chain 2: EPKSSDKTHTCPPCPAPELLGGPSVFLFPPKPKDTLMISRTPEVTCVVVDVSHEDPEVKFNWYVDGVEVHNAKTKPREEQYNSTYRVVSVLTVLHQDWLNGKEYKCKVSNKALPAPIEKTISKAKGQPREPQVCTLPPSRDELTKNQVSLWCLVKGFYPSDIAVEWESNGQPENNYKTTPPVLDSDGSFFLYSKLTVDKSRWQQGNVFSCSVMHEALHNRYTQKSLSLSP
chain 3: DIVMTQSPLSLPVTPGEPASISCRSSQSLVHSNRNTYLHWYQQKPGQAPRLLIYKVSNRFSGVPDRFSGSGSGTDFTLKISRVEAEDVGVYYCGQGTQVPYTFGQGTKLEIKRTVAAPSVFIFPPSDEQLKSGTASVVCLLNNFYPREAKVQWKVDNALQSGNSQESVTEQDSKDSTYSLSSTLTLSKADYEKHKVYACEVTHQGLSSPVTKSFNRGEC
Molecule B1 showed a Kd in assay [1] of 200 nM.

B2: NNS6f62 (CE115HA340 with NGGTRH inserted between Kabat positions 99 and 100), one-arm antibody (antibody)
chain 1: QVQLVESGGGLVQPGRSLRLSCAASGFTFSNAWMHWVRQAPGKGLEWVAQIKDKSNNYATYYAESVKGRFTISRDDSKNSIYLQMNSLKTEDTAVYYCRYVHYAANGGTRHYYGVDAWGQGTTVTVSSASTKGPSVFPLAPSSKSTSGGTAALGCLVKDYFPEPVTVSWNSGALTSGVHTFPAVLQSSGLYSLSSVVTVPSSSLGTQTYICNVNHKPSNTKVDKKVEPKSCDKTHTCPPCPAPEAAGGPSVFLFPPKPKDTLMISRTPEVTCVVVDVSHEDPEVKFNWYVDGVEVHNAKTKPREEQYASTYRVVSVLTVLHQDWLNGKEYKCKVSNKALPAPIEKTISKAKGQPREPQVYTLPPSRCELTKNQVSLSCAVKGFYPSDIAVEWESNGQPENNYKTTPPVLDSDGSFFLVSKLTVDKSRWQQGNVFSCSVMHEALHNHYTQKSLSLSPDYKDDDDK
chain 2: EPKSSDKTHTCPPCPAPELLGGPSVFLFPPKPKDTLMISRTPEVTCVVVDVSHEDPEVKFNWYVDGVEVHNAKTKPREEQYNSTYRVVSVLTVLHQDWLNGKEYKCKVSNKALPAPIEKTISKAKGQPREPQVCTLPPSRDELTKNQVSLWCLVKGFYPSDIAVEWESNGQPENNYKTTPPVLDSDGSFFLYSKLTVDKSRWQQGNVFSCSVMHEALHNRYTQKSLSLSP
chain 3: DIVMTQSPLSLPVTPGEPASISCRSSQSLVHSNRNTYLHWYQQKPGQAPRLLIYKVSNRFSGVPDRFSGSGSGTDFTLKISRVEAEDVGVYYCGQGTQVPYTFGQGTKLEIKRTVAAPSVFIFPPSDEQLKSGTASVVCLLNNFYPREAKVQWKVDNALQSGNSQESVTEQDSKDSTYSLSSTLTLSKADYEKHKVYACEVTHQGLSSPVTKSFNRGEC
With B2, binding in assay [1] was characterised by a dissociation constant (Kd) of 61 nM.

B3: NNS6f63 (CE115HA340 with GGGGWV inserted between Kabat positions 99 and 100), one-arm antibody (antibody)
chain 1: QVQLVESGGGLVQPGRSLRLSCAASGFTFSNAWMHWVRQAPGKGLEWVAQIKDKSNNYATYYAESVKGRFTISRDDSKNSIYLQMNSLKTEDTAVYYCRYVHYAAGGGGWVYYGVDAWGQGTTVTVSSASTKGPSVFPLAPSSKSTSGGTAALGCLVKDYFPEPVTVSWNSGALTSGVHTFPAVLQSSGLYSLSSVVTVPSSSLGTQTYICNVNHKPSNTKVDKKVEPKSCDKTHTCPPCPAPEAAGGPSVFLFPPKPKDTLMISRTPEVTCVVVDVSHEDPEVKFNWYVDGVEVHNAKTKPREEQYASTYRVVSVLTVLHQDWLNGKEYKCKVSNKALPAPIEKTISKAKGQPREPQVYTLPPSRCELTKNQVSLSCAVKGFYPSDIAVEWESNGQPENNYKTTPPVLDSDGSFFLVSKLTVDKSRWQQGNVFSCSVMHEALHNHYTQKSLSLSPDYKDDDDK
chain 2: EPKSSDKTHTCPPCPAPELLGGPSVFLFPPKPKDTLMISRTPEVTCVVVDVSHEDPEVKFNWYVDGVEVHNAKTKPREEQYNSTYRVVSVLTVLHQDWLNGKEYKCKVSNKALPAPIEKTISKAKGQPREPQVCTLPPSRDELTKNQVSLWCLVKGFYPSDIAVEWESNGQPENNYKTTPPVLDSDGSFFLYSKLTVDKSRWQQGNVFSCSVMHEALHNRYTQKSLSLSP
chain 3: DIVMTQSPLSLPVTPGEPASISCRSSQSLVHSNRNTYLHWYQQKPGQAPRLLIYKVSNRFSGVPDRFSGSGSGTDFTLKISRVEAEDVGVYYCGQGTQVPYTFGQGTKLEIKRTVAAPSVFIFPPSDEQLKSGTASVVCLLNNFYPREAKVQWKVDNALQSGNSQESVTEQDSKDSTYSLSSTLTLSKADYEKHKVYACEVTHQGLSSPVTKSFNRGEC
Take B3: in assay [1], the Kd is 69 nM.

B4: DADU01_3#002 (antibody, human IgG1, V domains shown)
VH: QVQLVESGGGLVQPGRSLRLSCAASGFTFSNAWMHWVRQAPGKGLEWVAQIKDKQNLYNAYYAESVKGRFTISRDDSKNSIYLQMNSLKTEDTAVYYCHYVHYASASTVLPAFGVDAWGQGTTVTVSS
VL: DIVMTQSPLSLPVTPGEPASISCRSSQSLVHSNRNTYLHWYQQKPGQAPRLLIYKVSNRFSGVPDRFSGSGSGTDFTLKISRVEAEDVGVYYCGQGTQVPYTFGQGTKLEIK
notes: IgG: VH joined to human IgG1 CH1-Fc; also called dBBDu124
For the molecule B4, the results for the RLU in assay [2] and in assay [5] were 10800 RLU and 39100 RLU, respectively. In addition, the “S/N ratio cyno CD137-Fc/Fc” value in assay [3] came to 5.6. Besides, the “S/N ratio human CD137-Fc/Fc” value in assay [4] worked out at 20.3.

B5: DXDU01_3#072 (antibody, human IgG1, V domains shown)
VH: QVQLVESGGGLVQPGRSLRLSCAASGFTFSNAWMHWVRQAPGKGLEWVAQIKDRSQLYAAYYAPSVKGRFTISRDDSKNSIYLQMNSLKTEDTAVYYCHYVHYASASTVLGAYGVDAWGQGTTVTVSS
VL: DIVMTQSPLSLPVTPGEPASISCRSSQSLVHSNRNTYLHWYQQKPGQAPRLLIYKVSNRFSGVPDRFSGSGSGTDFTLKISRVEAEDVGVYYCGQGTQVPYTFGQGTKLEIKR
notes: also called dBBDu122
In the case of B5, in assay [6], the “RLU, CD3 peptide” value turned out to be 177000 RLU and the “S/N ratio CD3 peptide/non coating” value came to 148.

B6: NNS6f64 (CE115HA340 with LVSLTV inserted between Kabat positions 99 and 100), one-arm antibody (antibody, V domains shown)
VH: QVQLVESGGGLVQPGRSLRLSCAASGFTFSNAWMHWVRQAPGKGLEWVAQIKDKSNNYATYYAESVKGRFTISRDDSKNSIYLQMNSLKTEDTAVYYCRYVHYAALVSLTVYYGVDAWGQGTTVTVSS
VL: DIVMTQSPLSLPVTPGEPASISCRSSQSLVHSNRNTYLHWYQQKPGQAPRLLIYKVSNRFSGVPDRFSGSGSGTDFTLKISRVEAEDVGVYYCGQGTQVPYTFGQGTKLEIKR
As to B6, the affinity in assay [1], expressed as Kd, was 78 nM.

B7: NNS6f72 (CE115HA340 with EGIWWG inserted between Kabat positions 99 and 100), one-arm antibody (antibody, V domains shown)
VH: QVQLVESGGGLVQPGRSLRLSCAASGFTFSNAWMHWVRQAPGKGLEWVAQIKDKSNNYATYYAESVKGRFTISRDDSKNSIYLQMNSLKTEDTAVYYCRYVHYAAEGIWWGYYGVDAWGQGTTVTVSS
VL: DIVMTQSPLSLPVTPGEPASISCRSSQSLVHSNRNTYLHWYQQKPGQAPRLLIYKVSNRFSGVPDRFSGSGSGTDFTLKISRVEAEDVGVYYCGQGTQVPYTFGQGTKLEIKR
In the case of B7, the Kd in assay [1] was 150 nM.

B8: NNS6f68 (CE115HA340 with VEWGRW inserted between Kabat positions 99 and 100), one-arm antibody (antibody, V domains shown)
VH: QVQLVESGGGLVQPGRSLRLSCAASGFTFSNAWMHWVRQAPGKGLEWVAQIKDKSNNYATYYAESVKGRFTISRDDSKNSIYLQMNSLKTEDTAVYYCRYVHYAAVEWGRWYYGVDAWGQGTTVTVSS
VL: DIVMTQSPLSLPVTPGEPASISCRSSQSLVHSNRNTYLHWYQQKPGQAPRLLIYKVSNRFSGVPDRFSGSGSGTDFTLKISRVEAEDVGVYYCGQGTQVPYTFGQGTKLEIKR
Turning to B8, in assay [1], the Kd is 45 nM.

B9: NNS6f71 (CE115HA340 with GWVLGS inserted between Kabat positions 99 and 100), one-arm antibody (antibody, V domains shown)
VH: QVQLVESGGGLVQPGRSLRLSCAASGFTFSNAWMHWVRQAPGKGLEWVAQIKDKSNNYATYYAESVKGRFTISRDDSKNSIYLQMNSLKTEDTAVYYCRYVHYAAGWVLGSYYGVDAWGQGTTVTVSS
VL: DIVMTQSPLSLPVTPGEPASISCRSSQSLVHSNRNTYLHWYQQKPGQAPRLLIYKVSNRFSGVPDRFSGSGSGTDFTLKISRVEAEDVGVYYCGQGTQVPYTFGQGTKLEIKR
In assay [1], B9 had a Kd of 51 nM.

B10: NNS6f73 (CE115HA340 with WVVGVR inserted between Kabat positions 99 and 100), one-arm antibody (antibody, V domains shown)
VH: QVQLVESGGGLVQPGRSLRLSCAASGFTFSNAWMHWVRQAPGKGLEWVAQIKDKSNNYATYYAESVKGRFTISRDDSKNSIYLQMNSLKTEDTAVYYCRYVHYAAWVVGVRYYGVDAWGQGTTVTVSS
VL: DIVMTQSPLSLPVTPGEPASISCRSSQSLVHSNRNTYLHWYQQKPGQAPRLLIYKVSNRFSGVPDRFSGSGSGTDFTLKISRVEAEDVGVYYCGQGTQVPYTFGQGTKLEIKR
The molecule B10 came in with a Kd in assay [1] of 26 nM.

B11: NNS6f67 (CE115HA340 with GLLRAA inserted between Kabat positions 99 and 100), one-arm antibody (antibody, V domains shown)
VH: QVQLVESGGGLVQPGRSLRLSCAASGFTFSNAWMHWVRQAPGKGLEWVAQIKDKSNNYATYYAESVKGRFTISRDDSKNSIYLQMNSLKTEDTAVYYCRYVHYAAGLLRAAYYGVDAWGQGTTVTVSS
VL: DIVMTQSPLSLPVTPGEPASISCRSSQSLVHSNRNTYLHWYQQKPGQAPRLLIYKVSNRFSGVPDRFSGSGSGTDFTLKISRVEAEDVGVYYCGQGTQVPYTFGQGTKLEIKR
B11 returned a Kd in assay [1] of 36 nM.
